Source: patent publication EP0526502B1, “PHENOLIC AMINE DEPIGMENTING AND ANTIMELANOMA AGENTS” (The Governors of the University of Alberta, priority 1990, dated 1991)

Substrate: NCCSc1ccc(O)cc1
Experiment: Enzyme kinetics with monoamineoxidase (substrate disappearance by HPLC, Lineweaver-Burk)
Assay type: biochemical
Settings: other: plasma monoamine oxidase, 0.005 unit/ml, pH 7.4, 37°C
Description: Mushroom tyrosinase (400 units/mg) and plasma MAO (1000 units/gm) were obtained from Sigma Chemical Co. (St. Louis, MO, USA). A reaction mixture consisted of a substrate of 7 to 8 different concentrations (40 to 500 »M for mushroom tyrosinase and 20 to 200 »M for MAO) and of either mushroom tyrosinase (2.5 »g) or MAO (10 »g) in 1.0 mL of 0.05 M sodium phosphate buffer, pH 6.8 and 7.4 respectively. The reactions were carried out at 37°C in a shaking water bath, and stopped by taking 100 »L of the reaction mixture and adding it to 900 »L of 0.4 M HCLO₄. The disappearance of substrate was followed using HPLC (high pressure liquid chromatography) Km and Vmax values were calculated from the Lineweaver-Burk plots.

B1: plasma MAO (Bos taurus) (protein)
chain: REEGGVGSEEGVGKQCHPSLPPRCPSRSPSDQPWTHPDQSQLFADLSREELTTVMSFLTQQLGPDLVDAAQARPSDNCVFSVELQLPPKAAALAHLDRGSPPPAREALAIVFFGGQPQPNVTELVVGPLPQPSYMRDVTVERHGGPLPYYRRPVLLREYLDIDQMIFNRELPQAAGVLHHCCSYKQGGQKLLTMNSAPRGVQSGDRSTWFGIYYNITKGGPYLHPVGLELLVDHKALDPADWTVQKVFFQGRYYENLAQLEEQFEAGQVNVVVIPDDGTGGFWSLKSQVPPGPTPPLQFHPQGPRFSVQGNRVASSLWTFSFGLGAFSGPRVFDVRFQGERLAYEISLQEAGAVYGGNTPAAMLTRYMDSGFGMGYFATPLIRGVDCPYLATYMDWHFVVESQTPKTLHDAFCVFEQNKGLPLRRHHSDFLSHYFGGVAQTVLVFRSVSTMLNYDYVWDMVFYPNGAIEVKLHATGYISSAFLFGAARRYGNQVGEHTLGPVHTHSAHYKVDLDVGGLENWVWAEDMAFVPTAIPWSPEHQIQRLQVTRKQLETEEQAAFPLGGASPRYLYLASKQSNKWGHPRGYRIQTVSFAGGPMPQNSPMERAFSWGRYQLAITQRKETEPSSSSVFNQNDPWTPTVDFSDFINNETIAGKDLVAWVTAGFLHIPHAEDIPNTVTVGNGVGFFLRPYNFFDQEPSMDSADSIYFREGQDAGSCEINPLACLPQAATCAPDLPVFSHGGYPEY
notes: purchased Sigma Chemical Co. (St. Louis, MO, USA)
Km: 52.6 µM
